Measured values published in patent US20250243274A1 (JIBE THERAPEUTICS, published 2025).

Target: the molecule itself
Experiment: SDS-PAGE, no laddering in the reduced lane

B1: JIB34 (bispecific antibody)
heavy: QVQLQQPGAELVKPGASVKMSCKASGYTFTNYWINWVKQRPGQGLEWIGDIYPGGGITNYNEKFKTKATLTLDTSSSTVYMQLSSLTSEDSAVYYCSRSYGKYFDYWGQGTTLIVSSASTKGPSVFPLAPSSKSTSGGTAALGCLVKDYFPEPVTVSWNSGALTSGVHTCPAVLQSSGLYSLSSVVTVPSSSLGTQTYICNVNHKPSNTKVDKKVEPKSSDKTHTGGHHHHHH
light: DIKMTQSPSSMYASVGERVTITCKASQDIKSYLTWYQKKPWKSPRTLIFYSTRLADGVPSRFSGSGSGQDFSLTISSLESDDTATYYCLQHDESPFTFGGGTKLEIKRTVAAPSVFIFPPSDEQLKSGTASVVCLLNNFYPREAKVQWKVDNALQSGNSQESVTEQDSKDSTYSLCSTLTLSKADYEKHKVYACEVTHQGLSSPVTKSFNRGESGGGGSGGGGSGGGGSDIQMTQSPSSLSASVGDRVTITCRASQDIRNYLNWYQQKPGKAPKLLIYYTSRLESGVPSRFSGSGSGTDYTLTISSLQPEDFATYYCQQGNTLPWTFGQGTKVEIKGGGGSGGGGSGGGGSEVQLVESGGGLVQPGGSLRLSCAASGYSFTGYTMNWVRQAPGKGLEWVALINPTKGVSTYNQKFKDRFTISVDKSKNTAYLQMNSLRAEDTAVYYCARSGYYGDSDWYFDVWGQGTLVTVSS
notes: HP6017 Fab (bDS) with HzUCHT1 scFv on the light chain; also called anti-Fc HP6017 HzUCHT1 IgR
binding result: no binding
